The values that follow come from patent US5536822A, “γ-phosphate linked adenosine 5' triphosphate sepharose” (University of Virginia Alumni Patents Foundation, priority 1994, dated 1996).

In series [1] the test system is Nc1ncnc2c1ncn2[C@@H]1O[C@H](COP(=O)(O)OP(=O)(O)OP(=O)(O)O)[C@@H](O)[C@H]1O. Briefly: purified protein, by the assay type. Particulars: other: cyclic A kinase; pH 7.4.
Text: However, since the Km for ATP varied for each protein kinase tested, for comparative purposes it was convenient to determine the Ki /Km quotient (Table 1).
For series [2], the system named is T1, Nc1ncnc2c1ncn2[C@@H]1O[C@H](COP(=O)(O)OP(=O)(O)OP(=O)(O)O)[C@@H](O)[C@H]1O.
T1 construct: Department of Microbiology, University of Virginia (obtained from; not a purchase)
Briefly: Inhibition constant of the ATP derivative / Km for ATP, p60^c-src assay (peptide substrate). The series is classed as biochemical. To be noted: other: p60^c-src; pH 7.4. The source says: [γ-^32 P] ATP was synthesized according to the procedure set forth in Johnson et al., Advances in Cyclic Nucleotide Research, 10:135-167 (1979). The catalytic subunit of cyclic-AMP-dependent protein kinase was purchased from Promega. p60^c-arc was obtained from the Department of Microbiology, University of Virginia. Recombinant p42^mapk was purified as described in Haystead et al., (1992) FEBS Lett., 306:17-22. STE7 antibody was obtained from the University of Vancouver, Canada.
The 42-kDa MAP kinase (p42^mapk) and MAPKK were assayed as described previously (Haystead et al. (1992) FEBS. Lett., 306:17-22). The cyclic-A kinase assays (30 μl) included 1 μg cyclic-A kinase, 2 mM Kemptide, 50 mM Hepes, pH 7.4, 1 mM dithiothreitol, 200 μM ATP, 5 mM MgCl2. […]
In order to assess the effectiveness of adenosine 5'-(γ-4-aminophenyl)triphosphate as an affinity ligand for protein kinases, the inhibition constants (Ki) of the derivative were determined for four different protein kinases, namely, p42^mapk, cyclic-A kinase, MAPKK and p60^c-arc (Table 1). […] This also facilitated comparisons for the relative binding constants determined with other ATP analogs (Flockhart et al. (1984) Eur. J. Biochem., 140:289-295; Hoppe et al. (1972) Eur. J. Biochem., 80:369-372; Taylor et al. (1990) Peptides and Protein Phosphorylation (Kemp et al.) pp 2-32, CRC Press).

Usually Km stands for the substrate concentration at which the rate is half of its maximum. Cyclic A kinase (Bos taurus): the Km in series [1] came to 7.1 ± 0.51 µM.

Turning to p60^c-src (Homo sapiens), the Km in series [2] was 6.2 ± 1.30 µM.
